# Assay results published in patent US10052364B2, “Osteocalcin as a treatment for cognitive disorders” (THE TRUSTEES OF COLUMBIA UNIVERSITY IN THE CITY OF NEW YORK, priority 2013, dated 2018).
# Columns and labels:
# [1] = test system: brainstem neurons, neurons of the locus coeruleus, GABAergic interneurons of the hindbrain; test: Electrophysiology, whole cell current clamp recording in brain slices; format: cell-based, mouse
# Procedure: Brain slice preparations and electrophysiological recordings were performed according to methods known in the art. Briefly, WT mice were anesthetized with ether and then decapitated. The brains were rapidly removed and immersed in an oxygenated bath solution at […] containing (in mM): sucrose 220, KCl 2.5, CaCl2 1, MgCl2 6, NaH2PO4 1.25, NaHCO3 26, and glucose 10 pH 7.3 with NaOH. Coronal slices (350 μm thick) containing dorsal raphe (DR) were cut on a vibratome and maintained in a holding chamber with artificial cerebrospinal fluid (ACSF) (bubbled with 5% CO2 and 95% O2) containing (in mM): NaCl 124, KCl 3, CaCl2 2, MgCl2 2, NaH2PO4 1.23, NaHCO3 26, glucose 10, pH 7.4 with NaOH, and were transferred to a recording chamber constantly perfused with bath solution (330 C) at 2 ml/min after at least a 1 hr recovery. Whole-cell current clamp was performed to observe action potentials in DR serotoninergic (5-HT) neurons with a Multiclamp 700A amplifier (Axon instrument, CA). Patch pipettes with a tip resistance of 4-6 MS2 were made of borosilicate glass (World Precision Instruments) with a Sutter pipette puller (P-97) and filled with a pipette solution containing (in mM): K-gluconate (or Cs-gluconate) 135, MgCl2 2, HEPES 10, EGTA 1.1, Mg-ATP 2, Na2-phosphocreatine 10, and Na2-GTP 0.3, pH 7.3 with KOH. After a giga-Ohm (GΩ) seal and whole-cell access were achieved, the series resistance (between 20 and 40 MΩ) was partially compensated by the amplifier. […] Electrophysiological data were analyzed with Axograph 4.9 and plotted with Igor Pro software (WaveMetrics, Lake Oswego, Oreg.).
# To determine if osteocalcin acts directly on neurons to modulate neurotransmitter synthesis, several types of assays were performed. […] Third, to further confirm that osteocalcin signals in neurons of the hindbrain, calcium flux in MPHN treated with undercarboxylated or carboxylated osteocalcin (FIG. 3F) was measured. […]
# WT mice = test: ICV infusion in adult WT mice, D/LT and EPMT tests; format: in vivo, mouse; settings: ICV 3 or 10 ng/hour for one month
# Procedure: FIG. 8. Osteocalcin improves cognitive function in adult wild-type (WT) mice. Results from dark and light (DLT) and elevated plus maze tests (EPMT) performed in 3-month old WT mice infused ICV with vehicle (PBS) or Ocn (3, 10, 30 ng/hour) are shown. (A) DLT measuring the latency to enter, the number of entries, and the time spend in lit compartment. (B) EPMT measuring the number of entries into open arms and the time spend in lit compartments.
# Each mouse was allowed to explore the apparatus for 5 min. Global activity was assessed by measuring the number of entries […] (David et al, 2009, Neuron 62:479-493). Anxiety was assessed by comparing the time spent in the open arms.
# The test was performed in a quiet, darkened room. Mice were individually housed in cages containing a handful of bedding from their home cage and acclimated to the room at least 1 h before the test. Naïve mice were placed individually in the testing chamber in the dark compartment. The test was 5 min in duration, and time spent and number of entries in light compartments were recorded a highly trained observer, blind to the genotype of the mice. […]
molecule,measurement,setting,value
"uncarboxylated osteocalcin: Recombinant osteocalcin bacterially produced, cleaved from the GST subunit; completely undercarboxylated at all three sites (protein, listed as Homo sapiens, uncarboxylated, Recombinant osteocalcin bacterially produced, cleaved from the GST subunit; completely undercarboxylated at all three sites) MRALTLLALLALAALCIAGQAGAKPSGAESSKGAAFVSKQEGSEVVKRPRRYLYQWLGAPVPYPDPLEPRREVCELNPDCDELADHIGFQEAYRRFYGPV",action potential frequency of the GABAergic interneurons of the hindbrain,[1],inhibits
same,action potential frequency in neurons of the locus coeruleus,[1]; whole cell current clamp,decreases
same,action potential frequency of brainstem neurons,[1]; whole cell current clamp,activates
same,exploration of the lit compartment and open arms in D/LT and EPM tests,WT mice; WT mice,increase in the exploration
same,anxiety-like behavior (D/LT and EPMT),WT mice; WT mice implanted at 2 months,decrease in anxiety-like behavior
